The values below are quoted from earlier work in paper PMC7739374.

As a reminder, the Kd is the equilibrium constant for the complex coming apart.

In this series the target is Sos (Homo sapiens) (UniProt Q07889).

Turning to Ras (from UniProt P01112), the equilibrium dissociation constant (Kd) is 28 µM.
